Target: T1, Cbf5 wild type;Nop10;Gar1 (in complex) (Pyrococcus furiosus;Pyrococcus …, UniProt Q7LWY0;Q8U1R4;Q8U029 1-340;1-60;=MG+2-104, ||internal_change)
T1 sequence 1: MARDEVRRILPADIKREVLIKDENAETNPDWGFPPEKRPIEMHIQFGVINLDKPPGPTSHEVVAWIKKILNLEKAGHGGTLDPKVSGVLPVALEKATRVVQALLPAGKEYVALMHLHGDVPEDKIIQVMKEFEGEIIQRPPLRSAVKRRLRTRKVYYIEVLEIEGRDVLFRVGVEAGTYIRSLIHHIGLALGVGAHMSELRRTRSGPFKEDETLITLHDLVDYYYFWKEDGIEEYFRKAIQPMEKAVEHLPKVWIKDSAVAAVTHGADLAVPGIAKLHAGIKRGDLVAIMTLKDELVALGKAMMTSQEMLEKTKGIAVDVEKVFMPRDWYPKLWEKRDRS
T1 sequence 2: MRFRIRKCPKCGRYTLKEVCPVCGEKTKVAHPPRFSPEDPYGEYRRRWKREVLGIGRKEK
T1 sequence 3: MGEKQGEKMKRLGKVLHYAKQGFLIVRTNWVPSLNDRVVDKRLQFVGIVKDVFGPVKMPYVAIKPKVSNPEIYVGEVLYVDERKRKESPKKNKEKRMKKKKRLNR
Test: filter binding

B1: H/ACA guide RNA Pf4 (structured_RNA)
RNA: AAUGCCCCUCCCCUCUCACACCCCCGUGAGAAGUGAGCGGGGGGCGGUCGGGGAGGGGACAUCA
Kd: 21 ± 8 nM

Reference: PMC3443816
